In patent US9580487B2, “Method of treating stomach or bowel-related disorders by administering glucagon-like-peptide-2 (GLP-2) analogues” (Zealand Pharma A/S, priority 2005, dated 2017):
Entries after “also recorded” stand apart in the source; their conditions may differ. No end group written: not given here.

Assays:
[1] = Chemical stability testing: incubation in HCl, NaOH, H2O2 or NH4HCO3 at 40° C., remaining purity by RP-HPLC; assay type: physicochemical; details: for Stability during acid hydrolysis (in words): 0.1 M HCl, 12 days; for Stability during acid hydrolysis (in words) / Purity H2O2 0.5% 3 days / Purity HCl 0.1M 12 days / Purity NH4HCO3 0.1M 6 days: 40° C.; for Purity H2O2 0.5% 3 days / Purity HCl 0.1M 12 days / Purity NH4HCO3 0.1M 6 days: 2 mg/ml, relative to the purity at T=0; for Purity H2O2 0.5% 3 days / Purity HCl 0.1M 12 days: RP-HPLC; for Purity NH4HCO3 0.1M 6 days: pH 8, RP-HPLC
Description: The GLP-2 analogues were dissolved in purified water and subsequently diluted in solutions containing HCl, NaOH, H2O2 or NH4HCO3. The solutions were incubated at 40° C. to produce hydrolysis, deamidation and oxidation products. The samples were analyzed by RP-HPLC and the percentage of remaining intact compound was determined as a measure for the relative stability. The major degradation products were tentatively identified by LC-MS.
The GLP-2 analogues tested and the reference Gly^2-GLP-2, ZP1559 (SEQ ID NO:54), were dissolved in water and subsequently diluted into solutions containing HCl, NaOH, H2O2 or NH4HCO3. The samples were incubated at 40° C. to generate hydrolysis, deamidation and oxidation products, respectively. The compounds were analysed by RP-HPLC for purity of the original main peak and by LC-MS for confirmation of the identity by mass of the main peak and major degradation products.
The GLP-2 analogues were first dissolved in MQW to a concentration of 4 mg/ml and then further diluted in the stress solutions at a 1:1 ratio (e.g. 125 μl plus 125 μl). The final concentrations were 2 mg/ml of the GLP-2 analogues for stress conditions with 0.1 M HCl, 0.01M NaOH, 0.1 M NH4HCO3 and 0.5% H2O2, respectively.
The solutions were incubated at 40° C. in the dark and then diluted in Eluent A to a concentration of 0.5 mg/ml (addition of 750 μl) prior to analyses by RP-HPLC and by LC-MS.
The RP-HPLC analyses were performed on an Agilent Series 1100 HPLC system under control of the ChemStation (Revision A.08.03 [847]) software from Agilent Technologies, Inc. The raw data and the results of the peak integration were deposited on the ChemStore C/S server by the use of Agilent Technologies Revision B01.03 software.
The results are shown in Table 9 as the compound purity measured by RP-HPLC after incubation under stress conditions. This purity is a measure for the remaining intact compound after incubation in stress solutions, relative to the purity measured a T=0.

[2] = system: C57BL mice treated with 5-Fluorouracil (5-FU); assay: 5-FU-induced small intestinal atrophy (SI-BW, SI length) in mice; assay type: in vivo; details: for 5-FU-induced small intestine atrophy (SI-BW, SI length): 5-405 (810) nmol/kg s.c. b.i.d., 3 days prior to and 4 days with 5-FU 50 mg/kg i.p. daily; for Efficacy on SI-length compared with 405 nmol/kg [Gly2]GLP-2 / Efficacy on SI-BW compared with 405 nmol/kg [Gly2]GLP-2: 5-FU treated mice; for Efficacy on SI-BW compared with 405 nmol/kg [Gly2]GLP-2: equimolar dose; for Efficacy on 5-FU-induced atrophy compared with [Gly2]GLP-2 (figure legends): high/highest doses vs [Gly2]GLP-2 405 nmol/kg
Description: (§1) FIG. 6 is a set of graphs showing the effect of compound 1846 (SEQ ID NO:34) (5, 15, 45, 135, 405 and 810 nmol/kg, s.c., b.i.d.; n=6/dose group) on A) small intestine-to-body weight ratio (SI-BW), and B) small intestinal length (SI length) in mice treated with the cytostatic drug 5-Fluorouracil (5-FU). Compound 1846 (SEQ ID NO:34) was administered for 3 days prior to and for 4 days together with 5-FU, 50 mg/kg, i.p. daily. For reference, [Gly2]GLP-2 (SEQ ID NO:54) (405 nmol/kg) was given to one group of animals. Results from control animals treated with vehicle (PBS) or 5-FU alone are also shown. […] Values are means±SEM. * P<0.05, relative to 5-FU.
as §1, with “FIG. 7” for “FIG. 6”, “compound 1848” for “compound 1846”, “ID NO:36)” for “ID NO:34)”, “Compound 1848” for “Compound 1846”, “5-FU. # P<0.05, relative to [Gly2]GLP-2.” for “5-FU.”
FIG. 8 is a set of graphs showing the effect of compound 1855 (SEQ ID NO:43) (5, 15, 45, 135, and 405 nmol/kg, s.c., b.i.d.; n=6/dose group) on A) small intestine-to-body weight ratio (SI-BW), and B) small intestinal length (SI length) in mice treated with the cytostatic drug 5-Fluorouracil (5-FU). Compound 1855 (SEQ ID NO:43) was administered for 3 days prior to and for 4 days together with 5-FU, 50 mg/kg, i.p. daily. For reference, [Gly2]GLP-2 (405 nmol/kg) was given to one group of animals. Results from control animals treated with vehicle (PBS) or 5-FU alone are also shown. […] Values are means±SEM. * P<0.05, relative to 5-FU. # P<0.05, relative to [Gly2]GLP-2 (SEQ ID NO:54).
FIG. 9 is a set of graphs showing the effect of compound 1857 (SEQ ID NO:45) (5, 15, 45, 135, and 405 nmol/kg, s.c., b.i.d.; n=6/dose group) on A) small intestine-to-body weight ratio (SI-BW), and B) small intestinal length (SI length) in mice treated with the cytostatic drug 5-Fluorouracil (5-FU). Compound 1857 (SEQ ID NO:45) was administered for 3 days prior to and for 4 days together with 5-FU, 50 mg/kg, i.p. daily. For reference, [Gly2]GLP-2 (SEQ ID NO:54) (405 nmol/kg) was given to one group of animals. Results from control animals treated with vehicle (PBS) or 5-FU alone are also shown. […] Values are means±SEM. * P<0.05, relative to 5-FU. # P<0.05, relative to [Gly2]GLP-2 (SEQ ID NO:54).
The rapid rate of proliferation of the small intestinal stem cells, makes them a susceptible target to the cytotoxic effects of the chemotherapeutic agents used in anti-cancer therapies. Consequently, clinical use of the chemotherapeutic agent 5-fluorouracil (5-FU) is frequently associated with small intestinal injury (atrophy and diarrhea in cancer patients. We have previously shown that i.p. administration of 50 mg/kg 5-FU once daily for four days induces significant small intestinal atrophy in C57BL mice. The effect of the lead compounds, 1846 (SEQ ID NO:34), 1848 (SEQ ID NO:36), 1855 (SEQ ID NO:43), and 1857 (SEQ ID NO:45) on 5-FU-induced small intestinal atrophy was investigated in mice. 1846 (SEQ ID NO:34), 1848 (SEQ ID NO:36), 1855 (SEQ ID NO:43), or 1857 (SEQ ID NO:45) were administered twice daily for three days prior to 5-FU and for four days together with 5-FU administration. The lead compounds were each administered at five different doses (5, 15, 45, 135 and 405 nmol/kg) that have been previously shown to effectively stimulate small intestine growth in healthy mice (Example 9). […]

Substance | Stability during acid hydrolysis (in words) [1] | Purity H2O2 0.5% 3 days [1] | Purity HCl 0.1M 12 days [1] | Purity NH4HCO3 0.1M 6 days [1] | 5-FU-induced small intestine atrophy (SI-BW, SI length) [2] | Efficacy on SI-length compared with 405 nmol/kg [Gly2]GLP-2 [2] | Efficacy on SI-BW compared with 405 nmol/kg [Gly2]GLP-2 [2] | Efficacy on 5-FU-induced atrophy compared with [Gly2]GLP-2 (figure legends) [2] | Stability under accelerated oxidation (in words) ([1]; 0.5% H2O2, 40° C., 3 days)
[Gly2, Glu3, Leu10, Ser11, Ala16,24,28]hGLP-2(1-33)-NH2 [Compound 1857] | tendency of slightly higher stability | 59% | 86% | 96% | prevented 5-FU-induced small intestine atrophy; also recorded: dose-dependently prevented 5-FU-induced SI atrophy and maintained SI-BW at levels similar to PBS controls | significantly more efficacious than 405 nmol/kg [Gly2]GLP-2 | significantly more efficacious than 405 nmol/kg [Gly2]GLP-2 | – | –
[Gly2, Glu3, Ser8,11, Leu10, Ala16,24,28]hGLP-2(1-33)-(Lys)6-NH2 (HGEGSFSSELSTILDALAARDFIAWLIATKITDKKKKKK-NH2) [Compound 1846] | – | 64% | 70% | 82% | prevented 5-FU-induced small intestine atrophy; also recorded: dose-dependently prevented 5-FU-induced SI atrophy and maintained SI-BW at levels similar to PBS controls | – | – | – | –
[Gly2, Glu3, Thr5, Ser8, Leu10, Ala11,16,24,28]hGLP-2(1-33)-(Lys)6-NH2 (HGEGTFSSELATILDALAARDFIAWLIATKITDKKKKKK-NH2) [Compound 1848] | – | 68% | 63% | 93% | prevented 5-FU-induced small intestine atrophy; also recorded: dose-dependently prevented 5-FU-induced SI atrophy and maintained SI-BW at levels similar to PBS controls | significantly more efficacious than 405 nmol/kg [Gly2]GLP-2 | significantly more efficacious than 405 nmol/kg [Gly2]GLP-2 | more efficacious than [Gly2]GLP-2 | –
[Gly2, Glu3, Thr5, Ser8, Leu10, Ala11,16,24,28]hGLP-2(1-33)-NH2 [Compound 1855] | tendency of slightly higher stability | 14% | 85% | 97% | prevented 5-FU-induced small intestine atrophy; also recorded: dose-dependently prevented 5-FU-induced SI atrophy and maintained SI-BW at levels similar to PBS controls | – | significantly more efficacious than 405 nmol/kg [Gly2]GLP-2 | more efficacious than the equimolar dose of [Gly2]GLP-2; also recorded: more efficacious than a high dose of [Gly2]GLP-2 | unexplainable low stability
